We go through 3 molecules from publication PMC4990646, “DELLA proteins are common components of symbiotic rhizobial and mycorrhizal signalling pathways” (Nature Communications, 2016).

Sequences and labels used below:
B2: HIS-MtDELLA1 (natural protein, M. truncatula, UniProt A0A396IUP1 1-594, looked up)
chain: MKREHQESFGGGVISNNNKTNTNHLNSSKNINFGECSSMQNTNTKQNMWREEKETNGGGMDELLAALGYKVRSSDMADVAQKLEQLEMVMGSAQEEGINHLSSDTVHYDPTDLYSWVQTMLTELNPDSSQINDPLASLGSSSEILNNTFNDDSEYDLSAIPGMAAYPPQEENTAAKRMKTWSEPESEPAVVMSPPPAVENTRPVVLVDTQETGVRLVHTLMACAEAIQQKNLKLAEALVKHISLLASLQTGAMRKVASYFAQALARRIYGNPEETIDSSFSEILHMHFYESSPYLKFAHFTANQAILEAFAGAGRVHVIDFGLKQGMQWPALMQALALRPGGPPTFRLTGIGPPQADNTDALQQVGWKLAQLAQTIGVQFEFRGFVCNSIADLDPNMLEIRPGEAVAVNSVFELHTMLARPGSVEKVLNTVKKINPKIVTIVEQEANHNGPVFVDRFTEALHYYSSLFDSLEGSNSSSNNSNSNSTGLGSPSQDLLMSEIYLGKQICNVVAYEGVDRVERHETLTQWRSRMGSAGFEPVHLGSNAFKQASTLLALFAGGDGYRVEENNGCLMLGWHTRSLIATSAWKLPQNESK
notes: MtDELLA1 of Medicago truncatula; the trigger factor is inferred from the vector pCold-TF; also called HIS-tagged MtDELLA1; source: E. coli, purified (Ni-NTA Agarose); not shown: His tag, N-terminal, kept
B3: HIS-MtDELLA2 (natural protein, M. truncatula, UniProt A0A396GMX6 1-533, looked up)
chain: MKREHKLEHEDMSSGSGKSGVCWEDDGGGMDELLAVVGYKVKSSDMAEVAQKLEQLEQAMMGNNFHDHDESTIAQHLSNDTVHYNPSDISNWLQTMLSNFDPQPNNPSVNSDDNDLNAIPGKAIYAADEFTSRKRVKRNESVTVTTESTTTRPIMVVETQEKGIRLVHSLMACAEAVEQNNLKMAEALVKQIGYLAVSQEGAMRKVATYFAEGLARRIYGVFPQHSVSDSLQIHFYETCPNLKFAHFTANQAILEAFQGKSSVHVIDFSINQGMQWPALMQALALRPGGPPAFRLTGIGPPASDNSDHLQQVGWRLAQFAQTIHVQFEYRGFVANSLADLDASMLELRSPETESVAVNSVFELHKLNARPGALEKVFSVIRQIRPEIVTVVEQEANHNGPAFLDRFTESLHYYSTLFDSLEGSSVEPQDKAMSEVYLGKQICNVVACEGTDRVERHETLNQWRNRFNSAGFSPVHLGSNAFKQASMLLALFAGGDGYKVEENDGCLMLGWHTRPLIATSAWKLAAANSVVVSH
notes: MtDELLA2 of Medicago truncatula; the trigger factor is inferred from the vector pCold-TF; also called HIS-tagged MtDELLA2; source: E. coli, purified (Ni-NTA Agarose); not shown: His tag, N-terminal, kept

Common to all, as to experiment: pull-down; MBP fusion on amylose resin captures purified HIS-tagged MtDELLA; western blot with anti-MBP and anti-HIS
Holding throughout (conditions): both partners purified
(In general: Immunoblotting shows a protein as a band on a membrane.)

Assay [1] addresses B2.
In assay [2] the target is B3.
Assay [3] addresses T1, MBP-NSP2 (M. truncatula, UniProt Q5NE24 1-508).
T1 construct: NSP2 of Medicago truncatula; source: E. coli, purified (amylose resin), held on the resin; not shown: MBP, N-terminal, kept

T1 sequence (Q5NE24 whole entry, the tested form may be a part): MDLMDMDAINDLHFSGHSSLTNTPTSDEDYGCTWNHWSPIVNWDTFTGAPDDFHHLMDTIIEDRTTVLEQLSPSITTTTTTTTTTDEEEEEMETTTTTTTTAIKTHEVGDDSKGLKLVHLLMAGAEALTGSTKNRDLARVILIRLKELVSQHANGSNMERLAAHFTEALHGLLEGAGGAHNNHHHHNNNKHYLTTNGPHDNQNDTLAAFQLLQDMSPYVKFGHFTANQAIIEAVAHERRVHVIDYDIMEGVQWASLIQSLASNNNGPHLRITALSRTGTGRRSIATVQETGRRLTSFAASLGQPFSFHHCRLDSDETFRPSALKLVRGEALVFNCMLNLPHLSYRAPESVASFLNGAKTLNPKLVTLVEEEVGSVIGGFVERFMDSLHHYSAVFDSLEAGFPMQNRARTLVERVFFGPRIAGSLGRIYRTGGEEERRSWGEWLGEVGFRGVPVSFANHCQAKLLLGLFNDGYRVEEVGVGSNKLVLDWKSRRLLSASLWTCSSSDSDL

B1: MBP-IPD3 (natural protein, M. truncatula, UniProt A7TUE1 1-513, looked up)
chain: MEGRGFSGLYKNSSEELFLKTVMESPIGMPVPTMEMLGFKTVSQSFRTDSEELFKRWLTNDQEGYNSSSMGLNSRLSKRISTEIANMSNQQHIGVASEGRNNDKSCLQNNFLANDVSSDFNFPIRDPVDRELQSSNLFLAKAWFITDQRMTRSRSSELRRRYTEMQNSQAPQGLDSMFMVPEHDTNTIKEELANFNGFDYLSMCELPSQKGTFMSPSNSSSSTFNTHQLVDVDKVSSCVSMLKGTLQRKKLECQVEKEAAEDGLNEIFCIREPLFQSAFNEEESWNQQKLVNVQGDFTDQVNDPGVMQTLEGTTNFVLDGFANQTNQIQGRTASGEPSQSESSAAAPVISSGLDACEGPSNSNQTLGDSSWKQVGESTQNKVRGVREQIMDNLKDDRKRKSLERYGSVTSAVSDGKMDNTKKRRVERSRKMAEAKERNLTPTIPSDMQAILKRCENLEKEVRSLKLNLSFMNRKDSEQTKQIEDLQKQNEDLADEKERLLEEIERILSETGKI
notes: IPD3 (CYCLOPS) of Medicago truncatula; also called MBP-IPD3 fusion protein; source: E. coli, purified (amylose resin), held on the resin; not shown: MBP, N-terminal, kept
B1: the binding result in assay [1] and in assay [2] was “binds” in each case.

Take B2: in assay [3], the binding result is “binds”.

As to B3, in assay [3], the binding result is “binds”.
